Numbering of substitutions follows the chain as printed.
T1: human MSLN-R1-his protein (human, UniProt Q13421 296-390)
T1 construct: Region 1 of human mesothelin, made in HEK293E cells, His-tagged; also called human MSLN-R1 protein; hMSLN-R1-his; not shown: His tag
T1 chain: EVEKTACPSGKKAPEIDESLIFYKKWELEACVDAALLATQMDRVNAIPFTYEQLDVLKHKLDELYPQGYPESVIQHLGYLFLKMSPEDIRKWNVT

B1: S009-F8-18.9 (antibody, human IgG1, kappa, V domains shown)
VH: EFQLQQSGPELVKPGASVKISCKASGYSFTDYNMNWVKQSNGKSLEWIGIINPNYGTTSYNQKFKGRATLTVDQSSSTAYVQLNSLTSEDSAVYYCARGGYDNEAMDYWGQGTSVTVSS
VL: QIVLTQSPAIMSASPGEKVTMTCSASSSVSYMHWYQQKSGTSPKRWIYDTSKLASGVPARFSGSGSGTSYSLTISSMEAEDAATYYCQQWSSNPPTFGAGTKLELKR
B2: S009-F8-19.21 (antibody, human IgG1, kappa, V domains shown)
VH: B1 VH with A24T, I50V, S59G, R67K, V81M, N103G, Q111H
VL: B1 VL with S30N, N93Y, A99G, L105I
B3: S009-F8-15.19 (antibody, human IgG1, kappa, V domains shown)
VH: EFQLQQSGPELVKPGASVKISCKASGYSFTDYNMNWVKQSNGKSLEWIGIINPYYGTTSNNQNFKGKATLTVDQSSSTAYMQLNSLTSDDSAVYYCARWLRRDAMDYWGQGTSVTVSS
VL: DIVMTPSHKFMSTSVGDRVSIACKASQDVGSSVAWYQQKPGQSPKLLIYWTSTRHTGVPDRFTGSGSGTDFTLTISNVQSEDLADYFCQQYSSYPWTFGGGTKLEIKR
B4: S009-F8-13.8 (antibody, human IgG1, kappa, V domains shown)
VH: EFQLQQSGPELVKPGASVKISCKASGYSFTDYNMNWVKQTNGKSLEWIGIINPNYGTSSYNQKFKGKATLTVDQSSSTAYMQLNSLTSEDSAVYYCARVGRDNSGFDYWGQGTTLTVSS
VL: QIVLTQSPAIMSASPGEKVTMTCSASSSVSYMYWYQQKPGSSPRLLIYDTSNLASGVPVRFSGSGSGTSYSLTISRMEAEDAATYYCQQWSSYPPTFGSGTELEIKR
B5: S009-F8-22.23 (antibody, human IgG1, kappa, V domains shown)
VH: QVQLKQSGPGLVQPSQSLSITCTVSGFSLFSYGVHWVRQSPGKGLEWLGVIWSGGSTDYNAAFISRLSISKDNSKSQVFFKMNSLQADDTAMYYCARNGGSMITTLYYAMDYWGQGTSVTVSS
VL: DVVMTQTPLSLPVSLGDQASISCRSSQSLVHSYGNTYLHWYLQKPGQSPKLLIYKVSNRFSGVPDRFSGSGSGTDFTLKISRVEAEDLGVYFCSQSTHIPFTFGGGTKLEIKR
B6: S009-F8-24.14 (antibody, human IgG1, kappa, V domains shown)
VH: EFQLQQSGPELVKPGASVKISCKASGYSFTDYNMNWVKLSNGKSLEWIGVIIPNYGTSSYNQKFKGKATLTVDQSSSTAYMQLNSLTSEDSAVYYCARWDNYYGSSLDYWGQGTTLTVSS
VL: DIVMTQSQKFMSTTVGDRVSITCKASQNVGTAVAWYQQKPGQSPKLLIYSASNRYTGVPDRFTGSGSGTDFILTISNMQSEDLADYFCQQYSSYPLTFGAGTKLELKR

biological target: T2, human MSLN-R2-his protein (human, UniProt Q13421 391-486); assay: ELISA on coated MSLN-R2; antibody 0.01 nM
T2 construct: Region 2 of human mesothelin, made in HEK293E cells, His-tagged; also called human MSLN-R2 protein; hMSLN-R2-his; not shown: His tag
T2 sequence (Q13421 other isoform, or with tags, fused parts or gaps): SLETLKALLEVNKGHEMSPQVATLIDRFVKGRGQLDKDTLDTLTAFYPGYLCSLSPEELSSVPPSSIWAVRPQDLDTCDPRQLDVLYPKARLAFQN

OD450 | Binder
0.04 OD450 | B1
0.04 OD450 | B2
0.04 OD450 | B3
0.04 OD450 | B4
0.04 OD450 | B5
0.04 OD450 | B6

biological target: T3, human MSLN-R3-his protein (human, UniProt Q13421 487-598); assay: ELISA on coated MSLN-R3; antibody 0.0001 nM
T3 construct: Region 3 of human mesothelin, made in HEK293E cells, His-tagged; also called human MSLN-R3 protein; hMSLN-R3-his; not shown: His tag
T3 sequence (Q13421 495-606): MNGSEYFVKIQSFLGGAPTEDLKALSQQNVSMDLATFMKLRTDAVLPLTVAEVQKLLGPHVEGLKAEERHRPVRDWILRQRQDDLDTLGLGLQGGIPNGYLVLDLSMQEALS

OD450 | Binder
0.04 OD450 | B1
0.04 OD450 | B2
0.04 OD450 | B3
0.04 OD450 | B4
0.04 OD450 | B5
0.04 OD450 | B6

biological target: T2, human MSLN-R2-his protein; assay: ELISA on coated MSLN-R2; antibody 100 nM
Experimental: (§1) The plate was sealed with a plastic film and incubated at 4° C. overnight. The next day, the plate was washed twice with PBST, and a blocking buffer [PBS+2% (w/w) BSA] was added for blocking at room temperature for 2 h. The blocking buffer was discarded, and a chimeric antibody or negative control antibody serially diluted from 100 nM was added at 50 μL/well. After incubation at 37° C. for 2 h, the plate was washed 3 times with PBST. […] After incubation at 37° C. for 2 h, the plate was washed 5 times with PBST. A TMB substrate was added at 50 μL/well for incubation at room temperature for 5-10 min, and then a stop solution (1.0 N HCl) was added at 50 μL/well.

OD450 | Binder
0.08 OD450 | B1
0.06 OD450 | B2
0.05 OD450 | B3
0.06 OD450 | B4
0.17 OD450 | B5
0.05 OD450 | B6

biological target: T3, human MSLN-R3-his protein; assay: ELISA on coated MSLN-R3; antibody 100 nM
Experimental: as §1

OD450 | Binder
0.1 OD450 | B1
0.09 OD450 | B2
0.08 OD450 | B3
0.06 OD450 | B4
0.1 OD450 | B5
0.06 OD450 | B6

Biological target: T1, human MSLN-R1-his protein
Assay: ELISA on coated MSLN-R1; antibody 0.0001 nM
Experimental: as §1

OD450 | Binder
0.06 OD450 | B1
0.06 OD450 | B2
0.04 OD450 | B3
0.05 OD450 | B4
0.26 OD450 | B5
0.05 OD450 | B6

Biological target: T1, human MSLN-R1-his protein
Assay: ELISA on coated MSLN-R1; antibody 10 nM
Experimental: as §1

OD450 | Binder
2.12 OD450 | B1
2.11 OD450 | B2
1.55 OD450 | B3
2.1 OD450 | B4
2.51 OD450 | B5
2.24 OD450 | B6

biological target: T3, human MSLN-R3-his protein; assay: ELISA on coated MSLN-R3; antibody 0.01 nM
Experimental: as §1

OD450 | Binder
0.04 OD450 | B1
0.04 OD450 | B2
0.04 OD450 | B3
0.04 OD450 | B4
0.04 OD450 | B5
0.04 OD450 | B6

Biological target: T1, human MSLN-R1-his protein
Assay: ELISA on coated MSLN-R1; antibody 1 nM
Experimental: as §1

OD450 | Binder
1.96 OD450 | B1
1.82 OD450 | B2
0.54 OD450 | B3
1.8 OD450 | B4
2.34 OD450 | B5
1.63 OD450 | B6

biological target: T2, human MSLN-R2-his protein; assay: ELISA on coated MSLN-R2; no antibody (blank)

OD450 | Binder
0.05 OD450 | B1
0.05 OD450 | B2
0.05 OD450 | B3
0.05 OD450 | B4
0.04 OD450 | B5
0.04 OD450 | B6

Biological target: T1, human MSLN-R1-his protein
Assay: ELISA on coated MSLN-R1; antibody 0.1 nM

OD450 | Binder
1.73 OD450 | B1
1.46 OD450 | B2
0.1 OD450 | B3
1.26 OD450 | B4
1.72 OD450 | B5
0.64 OD450 | B6

biological target: T3, human MSLN-R3-his protein; assay: ELISA on coated MSLN-R3; no antibody (blank)

OD450 | Binder
0.05 OD450 | B1
0.05 OD450 | B2
0.05 OD450 | B3
0.05 OD450 | B4
0.04 OD450 | B5
0.04 OD450 | B6

biological target: T3, human MSLN-R3-his protein; assay: ELISA on coated MSLN-R3; antibody 10 nM
Experimental: as §1

OD450 | Binder
0.06 OD450 | B1
0.05 OD450 | B2
0.05 OD450 | B3
0.05 OD450 | B4
0.05 OD450 | B5
0.05 OD450 | B6

biological target: T2, human MSLN-R2-his protein; assay: ELISA on coated MSLN-R2; antibody 10 nM
Experimental: as §1

OD450 | Binder
0.06 OD450 | B1
0.06 OD450 | B2
0.05 OD450 | B3
0.05 OD450 | B4
0.11 OD450 | B5
0.04 OD450 | B6

biological target: T3, human MSLN-R3-his protein; assay: ELISA on coated MSLN-R3; antibody 0.1 nM
Experimental: as §1

OD450 | Binder
0.04 OD450 | B1
0.04 OD450 | B2
0.04 OD450 | B3
0.04 OD450 | B4
0.04 OD450 | B5
0.04 OD450 | B6

Biological target: T1, human MSLN-R1-his protein
Assay: ELISA on coated MSLN-R1; no antibody (blank)
Experimental: as §1

OD450 | Binder
0.05 OD450 | B1
0.05 OD450 | B2
0.05 OD450 | B3
0.05 OD450 | B4
0.04 OD450 | B5
0.04 OD450 | B6

Biological target: T1, human MSLN-R1-his protein
Assay: ELISA on coated MSLN-R1; antibody 0.001 nM
Experimental: as §1

OD450 | Binder
0.15 OD450 | B1
0.1 OD450 | B2
0.05 OD450 | B3
0.08 OD450 | B4
0.36 OD450 | B5
0.07 OD450 | B6

biological target: T3, human MSLN-R3-his protein; assay: ELISA on coated MSLN-R3; antibody 1 nM
Experimental: as §1

OD450 | Binder
0.05 OD450 | B1
0.04 OD450 | B2
0.04 OD450 | B3
0.04 OD450 | B4
0.04 OD450 | B5
0.04 OD450 | B6

Biological target: T1, human MSLN-R1-his protein
Assay: ELISA on coated MSLN-R1; antibody 100 nM

OD450 | Binder
2.15 OD450 | B1
2.13 OD450 | B2
2.07 OD450 | B3
2.35 OD450 | B4
2.55 OD450 | B5
2.34 OD450 | B6

biological target: T2, human MSLN-R2-his protein; assay: ELISA on coated MSLN-R2; antibody 1 nM

OD450 | Binder
0.05 OD450 | B1
0.05 OD450 | B2
0.04 OD450 | B3
0.04 OD450 | B4
0.08 OD450 | B5
0.04 OD450 | B6

biological target: T3, human MSLN-R3-his protein; assay: ELISA on coated MSLN-R3; antibody 0.001 nM
Experimental: as §1

OD450 | Binder
0.05 OD450 | B1
0.04 OD450 | B2
0.04 OD450 | B3
0.05 OD450 | B4
0.04 OD450 | B5
0.04 OD450 | B6

biological target: T2, human MSLN-R2-his protein; assay: ELISA on coated MSLN-R2; antibody 0.1 nM

OD450 | Binder
0.04 OD450 | B1
0.04 OD450 | B2
0.04 OD450 | B3
0.05 OD450 | B4
0.05 OD450 | B5
0.04 OD450 | B6

biological target: T2, human MSLN-R2-his protein; assay: ELISA on coated MSLN-R2; antibody 0.001 nM

OD450 | Binder
0.04 OD450 | B1
0.04 OD450 | B2
0.04 OD450 | B3
0.05 OD450 | B4
0.05 OD450 | B5
0.04 OD450 | B6

Biological target: T1, human MSLN-R1-his protein
Assay: ELISA on coated MSLN-R1; antibody 0.01 nM
Experimental: as §1

OD450 | Binder
0.62 OD450 | B1
0.39 OD450 | B2
0.05 OD450 | B3
0.28 OD450 | B4
0.78 OD450 | B5
0.13 OD450 | B6

biological target: T2, human MSLN-R2-his protein; assay: ELISA on coated MSLN-R2; antibody 0.0001 nM
Experimental: as §1

OD450 | Binder
0.04 OD450 | B1
0.05 OD450 | B2
0.05 OD450 | B3
0.05 OD450 | B4
0.04 OD450 | B5
0.04 OD450 | B6

From patent publication US20250250357A1 (NANJING ZAIMING PHARMACEUTICAL, published 2025)
